These results are taken from US20100199379.

The test system of the data set is T1, Medicago sativa NAP1-like protein, 6×HIS-tagged, expressed in BL21 E. coli and purified on nickel agarose.
T1 sequence: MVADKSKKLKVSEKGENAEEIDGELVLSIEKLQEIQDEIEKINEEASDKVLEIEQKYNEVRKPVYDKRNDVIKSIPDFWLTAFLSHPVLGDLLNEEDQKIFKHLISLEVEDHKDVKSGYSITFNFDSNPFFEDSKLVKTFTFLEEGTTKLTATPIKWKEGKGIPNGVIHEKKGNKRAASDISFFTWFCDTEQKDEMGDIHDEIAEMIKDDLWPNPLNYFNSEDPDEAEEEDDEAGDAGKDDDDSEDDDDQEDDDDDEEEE

Consider “Protein Phosphatase 2A (PP2A) catalytic subunits purified from rabbit skeletal muscle”, for which the “PP2A activity on the phospho-histone H2A substrate (in vitro dephosphorylation of 32P-labelled substrate)” value is recorded as “already 2.5 mM concentration of the NAP1-like protein efficiently inhibited PP2A activity on the phospho-histonH2A substrate (50% decrease in activity)” and the “PP2A dephosphorylation of glycogen phosphorylase (in vitro, 32P-labelled substrate)” value is “the NAP1-like protein had no influence on the dephosphorylation of the glycogen phosphorylase even at 500 mM concentration”.
